{
  "source": "paper PMC9728169",
  "about": "“Enzymatic Biotransformation of Ginsenoside Rb2 into Rd by Recombinant α-L-Arabinopyranosidase from Blastococcus saxobsidens” (Journal of Microbiology and Biotechnology, 2019)",
  "substrate": "[H][C@@]1(O[C@@H]2[C@@H](O)[C@H](O)[C@@H](CO)O[C@@]2([H])O[C@H]2CC[C@]3(C)[C@@]4([H])C[C@@H](O)[C@]5([H])[C@@]([H])([C@](C)(CCC=C(C)C)O[C@@H]6O[C@H](CO[C@@H]7OC[C@H](O)[C@H](O)[C@H]7O)[C@@H](O)[C@H](O)[C@H]6O)CC[C@@]5(C)[C@]4(C)CC[C@@]3([H])C2(C)C)O[C@H](CO)[C@@H](O)[C@H](O)[C@H]1O",
  "experiment": "hydrolysis of arabinopyranose moiety of Rb2 (kinetic read-out not detailed)",
  "type": "biochemical, Blastococcus saxobsidens",
  "settings": "enzyme 10 μg/ml; substrate range 0.1 mM to 5 mM as printed (unit μM doubtful); pH and temperature not stated for this constant; unit of the source corrected",
  "data": [
    {"protein": "AbpBs (α-L-arabinopyranosidase) (Blastococcus saxobsidens) (protein, pGEX-4T-1 N-terminal GST fusion in E. coli BL21 (DE3), GST removed by thrombin (purified enzyme); primer-encoded N-terminus MRRIPF) MRRIPFNRGWETRAHANFFAEMHGAAAPWQPVTLPHDAALGRTRDAANGAGSGYVPGGVYEYRTTLAAPAEYRDRRVLLEFEGVYRTAMVYVNGSLAGSWATGYTGFVVDLDDHLRYGGDNEIRVVCRAHQDSRWYSGAGIHRPVHLVVGPLTHLALDGVRVTTTEVDAEFAVVEVATTVEHDGRGLRTLELVTEVRDGEGSAVATATSPVTVLPGEPAVVRQRLLLPTPALWGPDSPSLYTAAVVLRDGGTDVDDDAVSFGVRTLSLDPERGLRINGEPIKLRGACVHSDNGVLGAATIGRAEERRVQLLKEAGFNALRSAHNPMSRAMLDACDRYGVLVMDELTDVWTESKTDFDAALDFPQWWERDVEAMVAKDVNHPSVVFYSIGNEIPEVAKPHGAVWSRRLAEKVRALDGTRFVTNGINAMLAVIGEAKAAEEQAGINTMLTDMGAFMDELSASELVATRTAEAYDVLDAAGMNYMEARYQLDRTLFPRRVIVGAETFAGKIDRLWRLVLDHPHVIGDFTWTGWDYLGEAGVGRVAAADDPTAGQFGAPYPWLLAHVGDIDITGHRRPASYYREIVFGRRRDPYIAVLRPERHGRELSATPWAWSDTVGSWSWAGAEEKPVTVEVYSDADEVELLLDGTSLGTAKAGEANRFRAAFEVTYAPGELTAVSRTGGQETGRCSLRSATGPLALAAAADRPVVRADDTDLAHVTLTLEDADGVVALGVDREVTVTVEGPGVLQGFGSAAPATEESYLDDVHTTFDGRALAVVRPTGAGTITLTATAPGCPPVSLGIEAR", "values": [
      {"measurement": "Km", "result": 920, "unit": "µM"}
    ]}
  ]
}
